Results on one molecule are retold here after article PMC9124786, “A One-Step Electrochemical Aptasensor Based on Signal Amplification of Metallo Nanoenzyme Particles for Vascular Endothelial Growth Factor”.

This data set has as its target VEGF165 (VEGF A165) (UniProt P15692-4 27-191). The data set can be described thus: electrochemical impedance spectroscopy (aptasensor); 10 pg/ml-1 ug/ml VEGF, 60 min; LOD 8.2 pg/ml (not a Kd); VEGF incubated 60 min (37 C in the time optimisation) on BSA-blocked aptamer/CME NP electrode, water wash; EIS in 0.1 M PBS pH 7.4 with 5 mM [Fe(CN)6]3-/4-. The conditions noted are these: protein: commercial; chain copies: 2; hairpin.

Sequence of VEGF165 (VEGF A165) (P15692 other isoform, or with tags, fused parts or gaps): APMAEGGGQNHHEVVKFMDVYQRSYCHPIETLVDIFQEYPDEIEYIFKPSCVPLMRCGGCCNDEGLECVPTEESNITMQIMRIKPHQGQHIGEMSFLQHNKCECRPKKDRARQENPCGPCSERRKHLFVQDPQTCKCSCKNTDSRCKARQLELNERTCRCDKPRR

As for AAAAAAAAAACCGTCTTCCAGACAAGAGTGCAGGGAAAAAGAAGACGG (structured_DNA, 5' carboxylic acid) [VEGF aptamer with 5' A10 spacer], the binding result is given as “binds”.
